Experimental data reported in patent publication US12636342B2, “TARS derived from Akkermansia muciniphila or fragment thereof, and use thereof” (KOREA RESEARCH INSTITUTE OF BIOSCIENCE AND BIOTECHNOLOGY, priority 2020, dated 2026).

T1: mouse TLR2 on bone marrow-derived macrophages (BMDMs), Q9QUN7
T1 chain: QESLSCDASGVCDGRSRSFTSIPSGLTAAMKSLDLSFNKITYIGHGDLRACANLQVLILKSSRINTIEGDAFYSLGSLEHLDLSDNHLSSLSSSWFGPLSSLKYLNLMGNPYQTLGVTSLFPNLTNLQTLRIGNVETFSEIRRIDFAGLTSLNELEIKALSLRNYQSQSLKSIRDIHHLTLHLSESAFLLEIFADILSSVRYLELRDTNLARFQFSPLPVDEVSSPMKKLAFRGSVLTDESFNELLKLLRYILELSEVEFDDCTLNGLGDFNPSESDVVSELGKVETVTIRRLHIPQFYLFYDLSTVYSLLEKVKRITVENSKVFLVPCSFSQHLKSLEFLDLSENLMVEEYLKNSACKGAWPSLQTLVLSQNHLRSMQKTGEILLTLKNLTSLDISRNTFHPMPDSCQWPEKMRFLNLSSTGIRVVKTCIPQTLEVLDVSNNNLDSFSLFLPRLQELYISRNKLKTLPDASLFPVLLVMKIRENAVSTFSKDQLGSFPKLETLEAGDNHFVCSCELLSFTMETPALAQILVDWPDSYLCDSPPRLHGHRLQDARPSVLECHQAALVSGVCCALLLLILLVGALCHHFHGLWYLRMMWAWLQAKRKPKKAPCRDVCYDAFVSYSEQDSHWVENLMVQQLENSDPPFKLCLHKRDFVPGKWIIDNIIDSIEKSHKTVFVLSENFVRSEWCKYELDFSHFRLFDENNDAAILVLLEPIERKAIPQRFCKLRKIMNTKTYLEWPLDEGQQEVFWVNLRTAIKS


Tests used:
[1] = target: T1, mouse TLR2 on bone marrow-derived …
TLR4-FLAG = target: T2, TLR4-FLAG (UniProt O00206 24-839, limits assumed); test: Strep pull-down from HEK 293T cells co-expressing Strep-AmTARS and TLR4-FLAG, immunoblot
T2 construct: not shown: FLAG tag

[2] = test system: mouse bone marrow-derived macrophages (BMDMs); test: ELISA of immune cytokine secretion in BMDMs under normal conditions; type: cell-based; details: normal (non-inflammatory) conditions, 24 h
Procedure: Specifically, mouse bone marrow-derived macrophages (BMDMs) as mouse-derived immune cells were extracted from the mouse thighbone and shinbone, and then cultured in DMEM containing 10% fetal bovine serum (FBS) and antibiotics. Human macrophages (THP1) as human-derived immune cells were cultured in RPMI media containing 10% FBS and antibiotics.
The cultured cells were treated with AmTARS at 0.1 μM, 0.2 μM, and 0.5 μM for 24 h to obtain cell cultures. For cell removal, the media were centrifuged at 500×g for 10 min to obtain supernatants, which were then analyzed using an ELISA set (mouse interleukin (IL)-6, mouse IL-10, mouse tumor necrosis factor (TNF)-α, human IL-6, human IL-10, human TNF-α; BD Biosciences) to investigate the secretion of mouse- and human-derived immune cytokines. […]

BMDMs from TLR2-KO mouse = test: IL-10 production in BMDMs from TLR2 knock-out mice; type: cell-based
Excerpt: The TLR2-dependent immune function of AmTARS was further corroborated using TLR2 knock-out (KO) mice. […] However, IL-10 production by […] (U1/U2) was abolished in BMDMs from TLR2-KO mice, providing further evidence that AmTARS regulates host immune cells via its unique regions in a TLR2-dependent manner (FIG. 28D).

T2 sequence (O00206 24-839 limits assumed): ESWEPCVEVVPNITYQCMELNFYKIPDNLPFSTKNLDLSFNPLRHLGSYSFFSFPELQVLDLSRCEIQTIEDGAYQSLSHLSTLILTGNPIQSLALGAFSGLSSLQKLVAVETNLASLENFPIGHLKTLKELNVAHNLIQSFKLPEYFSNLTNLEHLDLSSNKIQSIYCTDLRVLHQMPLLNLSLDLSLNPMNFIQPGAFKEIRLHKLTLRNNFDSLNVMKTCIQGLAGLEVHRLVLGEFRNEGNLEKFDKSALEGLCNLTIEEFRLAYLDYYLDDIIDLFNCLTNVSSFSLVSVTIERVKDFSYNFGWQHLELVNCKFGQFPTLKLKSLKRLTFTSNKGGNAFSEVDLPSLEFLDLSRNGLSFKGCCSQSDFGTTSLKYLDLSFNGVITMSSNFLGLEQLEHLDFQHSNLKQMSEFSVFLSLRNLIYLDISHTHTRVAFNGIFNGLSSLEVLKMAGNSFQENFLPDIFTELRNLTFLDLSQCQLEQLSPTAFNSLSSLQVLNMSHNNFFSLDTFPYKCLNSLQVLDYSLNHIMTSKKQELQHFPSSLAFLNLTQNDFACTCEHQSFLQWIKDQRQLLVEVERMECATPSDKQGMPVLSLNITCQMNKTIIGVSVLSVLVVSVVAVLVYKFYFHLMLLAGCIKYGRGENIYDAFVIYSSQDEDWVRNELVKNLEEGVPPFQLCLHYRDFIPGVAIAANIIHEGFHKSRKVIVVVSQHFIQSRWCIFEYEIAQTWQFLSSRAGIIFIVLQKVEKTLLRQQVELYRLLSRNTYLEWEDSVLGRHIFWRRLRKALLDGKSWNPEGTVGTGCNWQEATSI

binding result (TLR4-FLAG)	Molecule	activation of PI3K and AKT, and phosphorylation of GSK3β at Ser9 (western blot) in BMDMs [1]	secretion/production of IL-10 [2]	IL-10 production (BMDMs from TLR2-KO mouse)
no binding	Strep-tagged Akkermansia muciniphila threonyl-tRNA synthetase (Strep-AmTARS) (enzyme, The tag is put N-terminal from the name 'Strep-AmTARS'; not shown: 2 x Strep tag from vector pEXPR-IBA105) MSEHKERKTLEERQQMSDLERLRHSCAHVLATAICRLWPDAQLAGGPAVDNGFYYDVELDHRISTEDFERIEEEMKKVVKENQVFQKEVISRADAMKMAESGELGALGPRSEPSRFKIDLLNDIPEDEEISLYRNGDFTDLCAGPHVGRTGNCKAFKIMSVASAFYKGDKNRPMLQRIYGTCFPNRTQLDEHLERLEEARRRDHRKLGRELGLFCIDESVGQGLILWKPKGALIRRSLQDFITEELDKLGYSQVYTPNIGKLDLYRTSGHFPYYQESQYAPIPERDAMEKLSQEGASCAELFNGLATGTIEGYMLKPMNCPHHIKIYANDAHSYRDLPVRLAEFGTVYRWEQSGELGGMTRVRGFTQDDAHIFCTPDQLAGEIRQCLGIVKTIFGTLGMTDYRVRLSMRDPESDKYVGSPENWDKAEQALREAAEWLGADYSEEAGEAAFYGPKIDFIVRDAIGREWQLGTVQVDYNLPERFDLHYTGADNKPHRPVMVHRAPFGSMERFTGLLIEHFEGKFPTWLSPEQVRVLPISDKVTDVAAAHRTALAARGVRVTVDETPDKIGAKIRNARLDRVPYMLVLGQREAEDGTVSVRHRDKGDLGAMPFEQFADLVAREIAERHISPVI	AmTARS activated PI3K and AKT, and subsequently inhibited GSK3β activity via AKT-mediated phosphorylation at Ser9, in BMDMs		
	EcTARS (U1/U2): Engineered EcTARS incorporating the AmTARS U1 and U2 regions, SEQ ID NO: 18 (protein, EcTARS(U1/U2)) MPVITLPDGSQRHYDHAVSPMDVALDIGPGLAKACIAGRVNGELVDACDLIENDAQLSIITAKDEEGLEIIRHSCAHLLGHAIKQLWPHTKMAIGPVIDNGFYYDVDLDRTLTQEDVEALEKRMHELAEKNYDVIKKKVSWHEARETFANRGAESGELGALGPRSEPESYKVSILDENIAHDDKPGLYFHEEYVDMCRGPHVPNMRFCHHFKLMKTAGAYWRGDSNNKMLQRIYGTAWADKKALNAYLQRLEEAAKRDHRKIGKQLDLYHMQEEAPGMVFWHNDGWTIFRELEVFVRSKLKEYQYQEVKGPFMMDRVLWEKTGHWDNYKDAMFTTSSEKLSQEGASCAELFNGLATGTIEGNREYCIKPMNCPGHVQIFNQGLKSYRDLPLRMAEFGSCHRNEPSGSLHGLMRVRGFTQDDAHIFCTEEQIRDEVNGCIRLVYDMYSTFGFEKIVVKLSTRPEKRIGSDEMWDRAEADLAVALEENNIPFEYQLGEGAFYGPKIEFTLYDCLDRAWQCGTVQLDFSLPSRLSASYVGEDNERKVPVMIHRAILGSMERFIGILTEEFAGFFPTWLAPVQVVIMNITDSQSEYVNELTQKLSNAGIRVKADLRNEKIGFKIREHTLRRVPYMLVCGDKEVESGKVAVRTRRGKDLGSMDVNEVIEKLQQEIRSRSLKQLEE		conferred the ability to trigger IL-10 production	abolished
